# Measured values: patent publication US11274132B2, “Combined preparations of PKM2 modulators and HMGB1” (Ruprecht-Karls-Universität Heidelberg, priority 2015, dated 2022)
# What was measured:
# [1] = test system: colon carcinoma cell lines; assay: MTT assay; assay type: cell-based, human; details: all colon carcinoma cell lines used; 0, 24, 48 hours; p<0.05, n=4
# Protocol: Assays were performed at three time points (0, 24, 48 hours), and the experiment was repeated four times. At each time point the cell viability was measured using the 3-(4,5-dimethylthiazol-2-yl)-2,5-diphenyl tetrazolium bromide (MTT) assay. The MTT assay was performed as described by Mosmann (Mosmann T. Rapid colorimetric assay for cellular growth and survival: application to proliferation and cytotoxicity assays. J Immunol Methods. 1983;65:55-63.). In brief, at each time point, medium was aspirated from the wells and MTT (1 mg/ml) was gently added to each well. The cells were incubated for 3 hours at 37° C. in 5% CO2, after which the MTT was aspirated and acidified isopropanol (0.04 M HCl) added to solubilize the reduced blue formazan crystals. Aliquots were transferred to a 96-well plate and the absorbance measured at a test filter of 590 nm and a reference filter of 630 nm on a 96-well plate reader.
# [2] = test system: colon carcinoma cell lines; assay: LDH release assay; assay type: cell-based, human; details: all colon carcinoma cell lines used; p<0.05, n=4
# Protocol: Lactate dehydrogenase activity was assayed spectrophotometrically by measuring the oxidation of NADH with pyruvate substrate at 340 nm as described in Bergmeyer and Berndt E. (1974). Results were analyzed using the following equation: […]
molecule,measurement,setting,value
"GInHMGB1: HMGB1 polypeptide with its B-Box domain tyrosine residues replaced by glutamine (SEQ ID NO:12), expressed in HEK cells (protein, HMGB1 Y -> Q mutein) MGKGDPKKPRGKMSSYAFFVQTCREEHKKKHPDASVNFSEFSKKCSERWKTMSAKEKGKFEDMAKADKARYEREMKTYIPPKGETKKKFKDPNAPKRPPSAFFLFCSEQRPKIKGEHPGLSIGDVAKKLGEMWNNTAADDKQPQEKKAAKLKEKQEKDIAAQRAKGKPDAAKKGVVKAEKSKKKKEEEEDEEDEEDEEEEEDEEDEDEEEDDDDE","proliferation (cell viability, MTT) compared to the untreated control",[1],significant decrease in proliferation
same,release of LDH into the medium compared to the untreated control,[2],significant release of LDH
